The values that follow are results of earlier work, collected in paper PMC7616283.

This series addresses CCR8 (Homo sapiens) (UniProt P51685).

CCL18, sequence (P55774 24-89): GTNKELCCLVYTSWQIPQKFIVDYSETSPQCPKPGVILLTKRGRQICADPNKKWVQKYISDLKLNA
CCR8 (Homo sapiens), sequence (P51685 whole entry): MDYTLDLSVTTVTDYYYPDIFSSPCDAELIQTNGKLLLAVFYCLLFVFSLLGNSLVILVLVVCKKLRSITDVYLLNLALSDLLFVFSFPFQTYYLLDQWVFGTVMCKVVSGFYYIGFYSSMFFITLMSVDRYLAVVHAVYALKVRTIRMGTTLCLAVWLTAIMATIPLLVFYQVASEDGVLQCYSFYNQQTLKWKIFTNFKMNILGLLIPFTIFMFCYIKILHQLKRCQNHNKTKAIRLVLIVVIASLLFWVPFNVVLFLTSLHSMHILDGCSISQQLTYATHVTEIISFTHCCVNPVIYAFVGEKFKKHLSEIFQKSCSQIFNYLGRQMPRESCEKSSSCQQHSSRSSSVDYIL

With CCL18 (from UniProt P55774), the equilibrium dissociation constant (Kd) is 1.9 nM.

What is called Kd is the concentration at which binding is half-saturated.
